Key:
[1] = system: lens epithelial explants; assay: Influence of TGFβ alone and in combination with FGF on lens epithelial explants (standard method); format: cell-based, rat; conditions: TGFβ 20 ng/ml, up to 5 days culture; summary of Example 1
Method: Lens explants were prepared from both postnatal and adult rats and changes during 5 days culture with growth factor(s) were monitored by light and electron microscopy, immunolocalisation of laminin, heparan sulphate proteoglycan and fibre-specific crystallins, and crystallin ELISAs.
Each experiment involved culturing explants for up to 5 days without added growth factors (controls), with TGFβ, with a combination of TGFβ and FGF (TGFβ/FGF), or with FGF alone. FGF is another growth factor that influences lens cell behaviour (Chamberlain and McAvoy, 1989; McAvoy et al., 1991). In some experiments, explants were prepared by a standard method used in our laboratory in which the adhering capsule serves as the substratum for the cells. In others, explants were inverted onto a laminin substratum. The latter method allows cell attachment, spreading and migration to be monitored as well as providing good visualisation of individual cells. […]
Explants used for immunofluorescent localisation were collected at the end of the culture period, fixed in Carnoy's fixative for 20 min at room temperature, transferred to 70% ethanol, then covered with a drop of melted 2.5% agar, before dehydrating in ethanol and embedding in paraffin. […] Controls for non-specific fluorescence were included routinely, that is, sections were treated with non-immune rabbit serum instead of specific antibody. […]

[2] = system: lens epithelial explants; assay: Lens epithelial explants cultured on laminin substratum with TGFβ and/or FGF; format: cell-based, rat; conditions: explants from 21-day-old rats, TGFβ 20 ng/ml, in the presence or absence of FGF 2 ng/ml, 5 day culture
Method: Each experiment involved culturing explants for up to 5 days without added growth factors (controls), with TGFβ, with a combination of TGFβ and FGF (TGFβ/FGF), or with FGF alone. FGF is another growth factor that influences lens cell behaviour (Chamberlain and McAvoy, 1989; McAvoy et al., 1991). In some experiments, explants were prepared by a standard method used in our laboratory in which the adhering capsule serves as the substratum for the cells. In others, explants were inverted onto a laminin substratum. The latter method allows cell attachment, spreading and migration to be monitored as well as providing good visualisation of individual cells.
Bovine brain basic FGF was prepared and stored at −20° C. as described by Chamberlain and McAvoy (1989). Ultrapure natural human TGFβ1 was obtained from Genzyme (Cambridge, Mass.) and stored at −80° C. Working stock solutions of TGFβ and FGF were prepared (in culture medium or 1% bovine serum albumin—0.5 M NaCl in phosphate-buffered saline, respectively) and centrifuged at 10,000 g for 10 min at 4° C. just before use.
This method is as described by Hales et al (1992) Briefly, on the day before the experiment, culture dishes were pre-coated with laminin. […] Responses were monitored daily by phase contrast microscopy.

[3] = system: TGFβ-induced cataract-like changes in rat lens epithelial explants; assay: Explant study using α2-macroglobulin to inhibit TGFβ-induced cataract-like changes; format: cell-based; set-up: key to cataract-like changes: extent of spindle-like elongation: −, negligible change or reverted to predominantly epithelial morphology; +-++++, indicates extent of spindle-like elongation; +-++++, indicates extent of spindle-like elongation; +-++++, indicates extent of spindle-like elongation; +-++++, indicates extent of spindle-like elongation; †-††††, indicates extent of cell loss; †-††††, indicates extent of cell loss; †-††††, indicates extent of cell loss; †-††††, indicates extent of cell loss; o, elongation assessment was invalidated by cell loss
Method: α2-macroglobulin prepared from bovine plasma was obtained from Boehringer Mannheim Australia (Castle Hill, NSW; #602 442). Lens epithelial explants (2 per culture dish) were prepared from 21-day-old rats as described previously (See Example 1, Standard Method). α2-macroglobulin was dissolved in culture medium (defined in Example 1) at a final concentration of 400 μg/ml. The solution was sterilised by passing through a 0.22 μm filter and a portion was diluted with an equal volume of sterile medium. These solutions were equilibrated at 37° C. in 5% CO2/air before use. A stock solution containing 25 pg/10 μl TGFβ2 (Genzyme, Cambridge, Mass.) was prepared in sterile medium. Six treatment groups were then set up by replacing medium in culture dishes containing explants with 1 ml medium or 1 ml medium containing 200 or 400 μg/ml α2-macroglobulin, with or without added TGFβ, as indicated in Table 2. Explants were cultured and monitored for cataract-like changes by phase contrast microscopy. In particular, each explant was graded according to the extent of spindle-like elongation and cell death, which are characteristically observed in explants cultured with TGFβ (See Examples 1 and 2). Explants were photographed on days 3-5.

[4] = Day 4, TGFβ2 25 pg/ml, α2-MG 200 μg/ml
[5] = Day 4, TGFβ2 25 pg/ml, α2-MG 400 μg/ml
[6] = Day 5, TGFβ2 25 pg/ml, α2-MG 200 μg/ml
[7] = Day 5, TGFβ2 25 pg/ml, α2-MG 400 μg/ml

Molecule: TGFβ: Ultrapure natural human TGFβ1 obtained from Genzyme (Example 1)
- cell elongation in explants [1]: extensive and rapid elongation
- other TGFβ-induced cataract-like responses in explants [1]: induced accumulation of extracellular matrix, capsule wrinkling, cell death by apoptosis and distinctive arrangements of cells
- cell spreading and migration onto laminin substratum [2]: inhibited spreading and migration

B1: α2-macroglobulin (protein, UniProt Q7SIH1 24-1510, looked up)
Alpha-2-macroglobulin: SVSGKPQYMVLVPSLLHTETPEKGCLLLSHLNETVTVSASLESVRENRSLFTDVVAEKDLFHCVSFTLPRSPTSQEVMFLTIQVKGPTQEFKKRTTVLVKNEESLVFVQTDKPIYKPEQTVKFRIVLLDESFHPLNELVPLVYVEDPKGNRIAQWQNLEVENGLQQLTFPLSSEPFQGSYKVVVQKGSGGTAEHPFTVEEFVLPKFEVQVRMPKIITILEEEVQVSVCGLYTYGKPVPGRVTMNMCRKYRNPSNCYGEESNAVCEKFSGELNNEGCFSQQVNTKIFQLKRQEFEMKIEVEAKIQEEGTEVELTGKGATEITTTITKLSFVTVDSNLRRGIPFTGKVLLVDGKGVPMPNKVIFITANEANHNSNTTTDEHGLAQFSITTTKIKGTSLSIRVKYKDHSPCYGYQWLSEEHQDAYHSANLVFSRSNSFVYLEPLPRELPCGKTQTVQAHYVLKGQVLKDLKELVFYYLIMAKGGIVRSGTHTLPVEQGDMQGHFSMSVPVESDIAPVARLLIYAILPDGEVVGDSARYEIEHCLANKVGLNFSPGQSFPASQAHLRVTASPQSLCALRAVDQSVLLMRPEAELSAATVYNLLPVKDLSSFPSSVNQQEEDNEDCISHDNVYINGIMYFPVSNTNEKDMYSFLQDMGLKAFTNSKIHKPKICPQPEEHRIQHHTLLASPVRAEMGRNRDFVHFDDTSEPPTETVRKYFPETWIWDLVVVSSSGVHEVEVTVPDTITEWKAGALCLSRDTGLGLSPTASLRVFQPFFVELTMPYSVIRGEAFTLKATVLNYLPKCIRVSVQLEASPAFLAVPEKEQETYCICGNGRQTVSWAVTPKSLGNVNFTVSAEAVESQELCGSEVPVVPEHGRKDTIIKPLLVEPEGLEKEVIFNSLLCPSVDFVFLGAEDGGQVLRHFPPAAATDTAADAHDPARPGAKVSESLSLKLPPNVVEESARASFSVLGDILGSAMRNTQNLLQMPYGCGEQNMARFAPNIYVLDYLNETQQLTAELKSKAILYLNTGYQRQLLYKHFDGSYSTFGEHRGNSEGNTWLTAFVLKSFAQARGYIFIDEAHITEALTWLAQKQKSNGCFRSTGTLLNNAIKGGVDDEVTLSAYITIALLEMPLPVTHPVVRNALFCLDSAWKSAKEGSQGSHVYTKALLAYAFALAGNQERRTEVLTSLYEEAVKEDNTIHWTRPQKPRLLTEDIYQPRAPSAEVEMTAYVILAHVTAQPAPNPEDLKRATSIVKWISKQQNCQGGFSSTQDTVVALHALSRYGAATFTSARKAAQVTIQSSGTFSTKFQVENSNRLLLQQVSLPEVPGEYSMSVTGEGCVYLQTSLKYNILPKKDEFPFALEVQTLPQTCDGPKAHTSFQISLSVSYIGSRPASNMAIVDVKMVSGFIPLKPTVKMLERSNVSRTEVSNNHVLIYLDKVTNETLTLTFTVLQDIPVRDLKPAIVKVYDYYETDEFAVAEYSAPCSKDIGNA
notes: α2-macroglobulin prepared from bovine plasma, Boehringer Mannheim Australia #602 442
- cataract-like changes: extent of spindle-like elongation ([3]; Day 2, TGFβ2 0 pg/ml, α2-MG 200 μg/ml): −
- cataract-like changes: extent of spindle-like elongation ([3]; Day 2, TGFβ2 0 pg/ml, α2-MG 400 μg/ml): −
- cataract-like changes: extent of spindle-like elongation ([3]; Day 2, TGFβ2 25 pg/ml, α2-MG 200 μg/ml): −
- cataract-like changes: extent of spindle-like elongation ([3]; Day 2, TGFβ2 25 pg/ml, α2-MG 400 μg/ml): −
- cataract-like changes: extent of spindle-like elongation ([3]; Day 3, TGFβ2 0 pg/ml, α2-MG 200 μg/ml): −
- cataract-like changes: extent of spindle-like elongation ([3]; Day 3, TGFβ2 0 pg/ml, α2-MG 400 μg/ml): −
- cataract-like changes: extent of spindle-like elongation ([3]; Day 3, TGFβ2 25 pg/ml, α2-MG 200 μg/ml): + (+-++++, indicates extent of spindle-like elongation)
- cataract-like changes: extent of spindle-like elongation ([3]; Day 3, TGFβ2 25 pg/ml, α2-MG 400 μg/ml): + (+-++++, indicates extent of spindle-like elongation)
- cataract-like changes: extent of spindle-like elongation ([3]; Day 4, TGFβ2 0 pg/ml, α2-MG 200 μg/ml): −
- cataract-like changes: extent of spindle-like elongation ([3]; Day 4, TGFβ2 0 pg/ml, α2-MG 400 μg/ml): −
- cataract-like changes: extent of cell loss [3, 4]: † (†-††††, indicates extent of cell loss)
- cataract-like changes: extent of spindle-like elongation [3, 4]: + (+-++++, indicates extent of spindle-like elongation)
- cataract-like changes: extent of cell loss [3, 5]: † (†-††††, indicates extent of cell loss)
- cataract-like changes: extent of spindle-like elongation [3, 5]: + (+-++++, indicates extent of spindle-like elongation)
- cataract-like changes: extent of spindle-like elongation ([3]; Day 5, TGFβ2 0 pg/ml, α2-MG 200 μg/ml): −
- cataract-like changes: extent of spindle-like elongation ([3]; Day 5, TGFβ2 0 pg/ml, α2-MG 400 μg/ml): −
- cataract-like changes: extent of cell loss [3, 6]: † (†-††††, indicates extent of cell loss)
- cataract-like changes: extent of spindle-like elongation [3, 6]: −
- cataract-like changes: extent of cell loss [3, 7]: † (†-††††, indicates extent of cell loss)
- cataract-like changes: extent of spindle-like elongation [3, 7]: −
- inhibition of TGFβ-induced changes ([3]; TGFβ2 25 pg/ml, α2-macroglobulin 200 or 400 μg/ml, days 2-5): substantially inhibited
- changes in explants cultured without TGFβ ([3]; medium containing α2-macroglobulin 200 or 400 μg/ml, no TGFβ, throughout the culture period): No significant changes
